In the supplement of paper PMC10567573:
± gives the standard deviation.

Assay: protein stability index of a GFP-peptide fusion (GPS, HEK-293T) (PSI 1-6); higher = more stable
Details: c terminus: a fixed tail appended
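Further: 24-mer peptide tiles fused after GFP, lentivirally expressed, FACS-sorted into six equal bins by GFP/DsRed ratio, decoded by Illumina sequencing, PSI is the read-weighted mean bin number.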

| Sequence | protein stability index (treatment: DMSO) | protein stability index (treatment: MLN4924 1 uM, 8 h) |
| --- | --- | --- |
| RCGVGVSVLDDLLYAVGGHDGSSY [KLHL20] | 2.36 ± 0.38 | 2.13 ± 0.42 |
| LLESSSSYKNLTLKFHKLVNVTIH [MCOLN1] | 2.58 ± 0.41 | 2.33 ± 0.55 |
| SNGFPERDPPRPGPSRPAEKPPRP [GCH1] | 5 ± 0.1 | 4.99 ± 0.082 |
| LEALLEAAGIGKLSTADGKAFADP [ANKRD17] | 3.42 ± 0.38 | 3.31 ± 0.15 |
| LDMRRDHEEQLQRLKLLKDREVDA [FBF1] | 5.08 ± 0.21 | 4.91 ± 0.3 |
| DEGDEPMPIPEDLSTTSGGQQSSK [IKZF1] | 5.42 ± 0.65 | 5.56 ± 0.28 |
| ANETLAEMEEELRYAPLSFRNPMM [VTI1B] | 2.42 ± 0.63 | 3.01 ± 0.56 |
| KEETNHSEMAEDLCKIGSERSLVL [IKZF1] | 4.69 ± 0.31 | 4.86 ± 0.28 |
| DDWEDDYDYPEEEQLSGAGYRVSA [EID1] | 4.9 ± 0.29 | 5.04 ± 0.21 |
| PSSLGPLLPLQREPLYNWQATKAS [BTBD1] | 3.36 ± 0.21 | 3.5 ± 0.14 |
| RQKREAAARKKYNLLQDSSTSDSD [C18orf25] | 5.17 ± 0.25 | 5.18 ± 0.15 |
| SEEMVKMVLSRPCHPDDQFTTSIL [INTS3] | 2.94 ± 0.34 | 2.98 ± 0.39 |
| YRRVNELLLSILNPTRQDESIQRI [ZER1] | 2.46 ± 0.14 | 2.66 ± 0.53 |
| SSSSGPGHGEPDVLKDELQLYGDA [TMEM40] | 5.3 ± 0.15 | 5.32 ± 0.19 |
| LEWHDSLFQILSERQDMYQCLVEG [ZNF511] | 2.42 ± 0.24 | 2.43 ± 0.29 |
| RQEYQKALQEYSSISEKLSSTNFA [C8orf76] | 3.48 ± 0.26 | 3.69 ± 0.18 |
| LYRSRMNSLEMTPAVRQRVIEEAK [HMOX1] | 4.04 ± 0.21 | 4.06 ± 0.26 |
| DSLTSLQWLQEFSILNAKAPALPP [FOXJ1] | 2.26 ± 0.043 | 2.19 ± 0.075 |
| HGVDLSALRGAAVDEYFRQPVVDT [CARM1] | 4.13 ± 0.41 | 4.29 ± 0.56 |
| SDLNVVASFDRRGEYIYTGNAKGK [RBBP5] | 4.32 ± 0.6 | 4.4 ± 0.26 |
| LSNKNGKNVELKFVDSIRRQFEFS [TENT5C] | 2.56 ± 0.24 | 2.48 ± 0.42 |
| TGLNNGRIKIWDVYTGKLLLNLVD [WSB1] | 2.54 ± 1.3 | 2.25 ± 0.61 |
| LESEGSPETLTNLRKGYLFMYNLV [HACD3] | 2.02 ± 0.2 | 1.97 ± 0.27 |

| Sequence | protein stability index (treatment: DMSO) | protein stability index (treatment: MLN4924 1 uM, 8 h) |
| --- | --- | --- |
| LKYENELALRQGVEADINGLRRVL [KRT15] | 3.35 ± 0.23 | 3.6 ± 0.18 |
| LRLRKERVSDVQKVLQGGEQEIQF [PKD2L1] | 3.74 ± 0.17 | 3.77 ± 0.34 |
| CCVKTELLGEETPMAADEGSAEKQ [EHMT1] | 5.45 ± 0.22 | 5.47 ± 0.12 |
| YVWVPIEQCLPSLENSKYCRFNQD [ATE1] | 2.3 ± 0.4 | 2.19 ± 0.12 |
| MSSASGLRRGHPAGGEENMTETDA [CASP6] | 5.3 ± 0.33 | 5.39 ± 0.16 |
| KKIYAMGGGSYGKLFESVECYDPR [GAN] | 2.94 ± 0.24 | 2.99 ± 0.17 |
| KCYLNGVKVPGIVRLRTLLCKVLG [CLCN6] | 2.93 ± 0.43 | 2.77 ± 0.36 |
| IRDFEARKCPVHGKTMELFCQTDQ [TRIM29] | 3.54 ± 0.28 | 3.76 ± 0.28 |
| PALLFPATRGVPAKRLLDADDAAA [TRIB1] | 4.74 ± 0.23 | 4.67 ± 0.27 |
| YMSQVLEKEMKAQEQRLGIRISMS [GMPPB] | 2.38 ± 0.094 | 2.74 ± 0.42 |
| ASMSPDATKPSHWCSVAYWEHRTR [SMAD6] | 2.84 ± 0.24 | 2.87 ± 0.27 |
| DPIVRPLWWIAPGDETAHRIDSQF [MYORG] | 3.23 ± 0.18 | 3.24 ± 0.27 |
| LYQLEGNNQITCRNGQWSEPPKCL [CFHR2] | 3.08 ± 0.29 | 2.98 ± 0.18 |
| LHLESELAQTRAEGQRQAQEYEAL [KRT18] | 5.07 ± 0.2 | 5.08 ± 0.26 |
| KSAILVPSEKKVAIIRTPPKSPAT [MAP2] | 4.32 ± 0.14 | 4.41 ± 0.1 |
| LLDCFGIPVLMALSWFILHARYRV [SLC35F2] | 3.07 ± 0.33 | 3.64 ± 0.27 |
| RNTSWGVVQEPPGRASRFLQSISW [TLE6] | 2.47 ± 0.28 | 2.46 ± 0.3 |
| TKGEKIMLAIITKMTLTQVSTWFA [IRX6] | 2.97 ± 0.5 | 2.95 ± 0.68 |
| EAAEGKSLGSALKPGEGRSALFAG [TRIM29] | 4.87 ± 0.17 | 4.76 ± 0.19 |
| QALSGTPKKGPAPSLSPGSSCVKY [TSPAN10] | 4.16 ± 0.059 | 4.37 ± 0.22 |
| CIFDKFECVWNGSDSVIMTGSYNN [PPP2R2B] | 2.27 ± 0.34 | 2.21 ± 0.14 |
| IEENITSAAPSNDQDGEYCPEVKL [SRPK2] | 5.5 ± 0.17 | 5.49 ± 0.28 |
| FVQRSGNYFVTMFDDYSATLPLTL [SLC6A17] | 2.65 ± 0.18 | 2.65 ± 0.55 |

| Sequence | protein stability index (treatment: DMSO) | protein stability index (treatment: MLN4924 1 uM, 8 h) |
| --- | --- | --- |
| RRMAESLRIPEGPIDQGPAIGRVR [FUT8] | 4.22 ± 0.17 | 4.43 ± 0.18 |
| ESRALSTSSNLGSQYQCENGVSGP [TBX5] | 4.95 ± 0.25 | 5.06 ± 0.21 |
| VNEFGMSGEDPTAAAPVAEVPTAA [CLPTM1] | 5.49 ± 0.26 | 5.39 ± 0.19 |
| DGSVVRDFEHRPKAPVVECSITGD [WDR88] | 5.4 ± 0.21 | 5.32 ± 0.16 |
| SYTTTTTITAPPSRVLQNGGDKLE [SCD] | 4.85 ± 0.23 | 4.81 ± 0.29 |
| RVFRVTFLMLAVSLTVPLLGAMML [APMAP] | 2.2 ± 0.43 | 2.4 ± 0.55 |
| LGSPYGQPPRFPVPHNGSSEATLP [PDLIM4] | 4.52 ± 0.31 | 4.6 ± 0.22 |
| SNSEKAKNIFRIRFHDPSPAQSHT [NET1] | 3.13 ± 0.2 | 3.06 ± 0.37 |
| ETLSGHGPLAQPLTLQVLVAGNPQ [ADAMTS4] | 3 ± 0.43 | 2.98 ± 0.31 |
| HIDSSCSSFIKTEPSSPASLTDSV [ESRRG] | 4.29 ± 0.18 | 4.23 ± 0.2 |
| LLLEPGSLYILRGSARYDFSHEIL [ALKBH7] | 2.58 ± 1.2 | 2.58 ± 1.3 |
| AFGKICHMVSDGSWVVRVQAAKLL [INTS4] | 2.74 ± 0.49 | 2.88 ± 0.58 |
| VPMILVGNKCDLEDERVVGKEQGQ [RAP1B] | 4.56 ± 0.35 | 4.72 ± 0.39 |
| HAAASNGQINVVKHLLNLGVEIDE [ANKRD44] | 4.06 ± 0.35 | 4.16 ± 0.25 |
| PVVSAVWGHCEIRMRYLNGLDPEP [SPSB1] | 2.14 ± 0.35 | 1.98 ± 0.33 |
| QRRTEASRNAADKERAAGGGAGSS [GOLPH3] | 5.54 ± 0.23 | 5.36 ± 0.15 |
| GSSNVGINRWRFLLQCLEDLDANL [CRY1] | 2.48 ± 0.52 | 2.4 ± 0.13 |
| DMRNSATFKSFEDRVGTIKSKVVG [TPD52L2] | 3.24 ± 0.16 | 3.61 ± 0.23 |
| IIDYLEQTFLDERTPRLMPDKESM [GDAP1] | 2.6 ± 0.27 | 2.82 ± 0.28 |
| MEAGERIDASQLPHRVLETRGHAI [SMIM2] | 4.19 ± 0.44 | 4.02 ± 0.6 |
| PNNSCYSAGIAKLEEGDELQLAIP [TNFSF13B] | 4.55 ± 0.12 | 4.59 ± 0.29 |
| AGFDALQGDPKGEMAATPAGFAQL [HDAC6] | 4.37 ± 0.21 | 4.09 ± 0.36 |
| IFQEQQKKWQQYRSVRRERLKEMK [FAM9B] | 3.22 ± 0.29 | 3.22 ± 0.39 |

| Sequence | protein stability index (treatment: DMSO) | protein stability index (treatment: MLN4924 1 uM, 8 h) |
| --- | --- | --- |
| TVGGEERVSRKPTAAMRCMCPLYD [GAN] | 3.3 ± 0.21 | 3.46 ± 0.49 |
| FKLLAGRWPFDHNDFGVFLCKLFP [EDNRA] | 2.34 ± 0.37 | 2.5 ± 0.38 |
| SESPGSLSEVLAQPQGALAPPNCE [DNAAF3] | 5.44 ± 0.1 | 5.17 ± 0.17 |
| LGAGGGSLLPGAVEQPQPQFISRF [NEK8] | 3.14 ± 0.21 | 3.32 ± 0.46 |
| PPTSPEPPRSSPRQTPAPGPAREK [CEBPD] | – | 5.62 ± 0.089 |
| SDHCITSSDMMDSSSFSNLDLSEE [VDR] | 5.48 ± 0.13 | 5.42 ± 0.16 |
| GGSGGGAGGAGGGVTEEQEGFADG [JUNB] | 5.5 ± 0.087 | 5.42 ± 0.43 |
| RQRCMPEEDLQSQSETQGLEGAQA [MAGEA10] | 5.44 ± 0.28 | 5.44 ± 0.082 |
| METHKELKPLLSPSSETTVTVELP [LYSMD4] | 4.77 ± 0.16 | 5.06 ± 0.083 |
| GSGQRVPALEEAPDSHQKRPQHSH [ELOA2] | 5.26 ± 0.17 | 5.29 ± 0.33 |
| IGYVHIYLKGQREKSEKINAMLKG [GOSR1] | 2.21 ± 0.14 | 2.67 ± 0.17 |
| LTGLNYEAPKYHIPYWVAYYLALL [NSDHL] | 2.71 ± 0.59 | 2.87 ± 0.48 |
| AVPPTSSVPPVAGAPSVGQPGAGF [SNAP91] | 4.53 ± 0.23 | 4.42 ± 0.086 |
| NGEYVPWLYCYDPVMDVWARKQDM [KLHL14] | 2.49 ± 0.09 | 2.57 ± 0.21 |
| VRAWDLETGKLLWKVRYDTFIVSC [WDR88] | 2.67 ± 0.069 | 2.11 ± 0.48 |
| IQEAQSAWKDDFALNSMLRRRFRE [YJU2B] | 3.53 ± 0.14 | 3.69 ± 0.25 |
| RVEESALRALREKLFAHSSDLLSE [PPEF2] | 2.96 ± 0.49 | 3.27 ± 0.32 |
| EVQKLVESGVDVNSQNEVNGWTCL [ANKRD40] | 3.43 ± 0.53 | 3.33 ± 0.16 |
| IWAFLDVSFVERILKSQKERQCAL [FBXO39] | 2.41 ± 0.53 | 2.24 ± 0.17 |
| SGGGGGGGGGGGGGKSGGIVISPF [CCDC6] | 3.53 ± 0.41 | 3.37 ± 0.23 |
| TDNGTFNLSRGQTPLTEGSEDLDG [RETREG3] | 5.25 ± 0.26 | 5.45 ± 0.25 |
